# Measurements as given in US20060257938A1, “Method of screening for drugs that block ligand binding to a lipid binding protein” (priority 2005, published 2006).
# Substitutions are numbered along the chain they refer to.
# B1: 38V 62V 117A 72A (protein, listed as Rattus norvegicus)
# chain: AFDGTWKVDRNENYEKFMEKMGINVVKRKLGAHDNLKVTITQEGNKFTVKESSNFRNIDVVVELGVDFAYSAADGTELTGTWTMEGNKLVGKFKRVDNGKELIAVREISGNELIQTATYEGVEAKRIFKKE
# modifications: PEPTIDE (1)...(131) wild-type rat intestinal fatty acid binding protein
# B2: 73N 72A 74F (protein, listed as Rattus norvegicus)
# chain: B1 chain with V38L, V62F, A73N, D74F, A117Y
# modifications: PEPTIDE (1)...(131) wild-type rat intestinal fatty acid binding protein
# B3: 18I 31L 73L 72A (protein, listed as Rattus norvegicus)
# chain: B1 chain with M18I, G31L, V38L, V62F, A73L, A117Y
# modifications: PEPTIDE (1)...(131) wild-type rat intestinal fatty acid binding protein
# B4: 38Q 106W 117A 72A (protein, listed as Rattus norvegicus)
# chain: B1 chain with V38Q, V62F, R106W
# modifications: PEPTIDE (1)...(131) wild-type rat intestinal fatty acid binding protein
# B5: 72T 73Q 74S (protein, listed as Rattus norvegicus)
# chain: B1 chain with V38L, V62F, A72T, A73Q, D74S, A117Y
# modifications: PEPTIDE (1)...(131) wild-type rat intestinal fatty acid binding protein
# B6: 14L 18I 31L 73F 117A 72A (protein, listed as Rattus norvegicus)
# chain: B1 chain with Y14L, M18I, G31L, V38L, V62F, A73F
# modifications: PEPTIDE (1)...(131) wild-type rat intestinal fatty acid binding protein
# B7: 14L 18T 31E 73G 117G 72A (protein, listed as Rattus norvegicus)
# chain: B1 chain with Y14L, M18T, G31E, V38L, V62F, A73G, A117G
# modifications: PEPTIDE (1)...(131) wild-type rat intestinal fatty acid binding protein
# B8: 14L 18S 31L 73V 117A 72A (protein, listed as Rattus norvegicus)
# chain: B1 chain with Y14L, M18S, G31L, V38L, V62F, A73V
# modifications: PEPTIDE (1)...(131) wild-type rat intestinal fatty acid binding protein
# B9: 72H 73Y 74G (protein, listed as Rattus norvegicus)
# chain: B1 chain with V38L, V62F, A72H, A73Y, D74G, A117Y
# modifications: PEPTIDE (1)...(131) wild-type rat intestinal fatty acid binding protein
# B10: 18G 31W 73V 72A (protein, listed as Rattus norvegicus)
# chain: B1 chain with M18G, G31W, V38L, V62F, A73V, A117Y
# modifications: PEPTIDE (1)...(131) wild-type rat intestinal fatty acid binding protein
# B11: 14L 18L 73L 117A 72A (protein, listed as Rattus norvegicus)
# chain: B1 chain with Y14L, M18L, V38L, V62F, A73L
# modifications: PEPTIDE (1)...(131) wild-type rat intestinal fatty acid binding protein
# B12: 62N 106F 117A 72A (protein, listed as Rattus norvegicus)
# chain: B1 chain with V38L, V62N, R106F
# modifications: PEPTIDE (1)...(131) wild-type rat intestinal fatty acid binding protein
# B13: 14V 18L 73V 117A 72A (protein, listed as Rattus norvegicus)
# chain: B1 chain with Y14V, M18L, V38L, V62F, A73V
# modifications: PEPTIDE (1)...(131) wild-type rat intestinal fatty acid binding protein
# B14: 72G 74F (protein, listed as Rattus norvegicus)
# chain: B1 chain with V38L, V62F, A72G, D74F, A117Y
# modifications: PEPTIDE (1)...(131) wild-type rat intestinal fatty acid binding protein
# B15: 21W 78I 72A (protein, listed as Rattus norvegicus)
# chain: B1 chain with M21W, V38L, V62F, L78I, A117Y
# modifications: PEPTIDE (1)...(131) wild-type rat intestinal fatty acid binding protein
# Assay: Probe fluorescence ratio response to stearic acid relative to ADIFAB2
# Format: binding
# Settings: response relative to ADIFAB2
# Outline: (§1)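 Fluorescently labeled rat intestinal FABP variants were read at two emission wavelengths, near the unbound maximum (about 420 to 480 nm) and the FFA-bound maximum (about 495 to 580 nm). R = Fλ1/Fλ2 after subtracting probe-free intensity; ΔR = R+agent − R0, normalized to ADIFAB2 (rI-FABP-L72A).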
row,Molecule,DR/DR SA
1,B1,0.495
2,B2,0.271
3,B3,0.390
4,B4,0.281
5,B5,1.792
6,B6,0.077
7,B7,0.413
8,B8,0.007
9,B9,0.052
10,B10,0.489
11,B11,0.031
12,B12,0.490
13,B13,0.105
14,B14,0.669
15,B15,3.396

# Assay: Probe fluorescence ratio response to arachidonic acid relative to ADIFAB2
# Format: binding
# Settings: arachidonic acid; response relative to ADIFAB2
# Outline: as §1
row,Molecule,DR/DR AA
1,B1,0.984
2,B2,0.870
3,B3,0.626
4,B4,1.078
5,B5,2.166
6,B6,1.297
7,B7,1.236
8,B8,0.951
9,B9,0.600
10,B10,0.774
11,B11,0.905
12,B12,1.265
13,B13,0.926
14,B14,1.669
15,B15,6.322

# Assay: Probe fluorescence ratio response to palmitic acid relative to ADIFAB2
# Format: binding
# Settings: response relative to ADIFAB2
# Outline: as §1
row,Molecule,DR/DR PA
1,B1,0.478
2,B2,1.468
3,B3,1.075
4,B4,0.444
5,B5,2.646
6,B6,0.121
7,B7,0.712
8,B8,0.028
9,B9,0.486
10,B10,0.463
11,B11,0.071
12,B12,0.430
13,B13,0.249
14,B14,2.304
15,B15,2.759

# Assay: Probe fluorescence ratio response to linolenic acid relative to ADIFAB2
# Format: binding
# Settings: response relative to ADIFAB2
# Outline: as §1
row,Molecule,DR/DR LNA
1,B1,1.153
2,B2,1.299
3,B3,0.857
4,B4,0.795
5,B5,2.419
6,B6,0.639
7,B7,1.133
8,B8,0.673
9,B9,0.591
10,B10,0.705
11,B11,0.641
12,B12,0.756
13,B13,0.624
14,B14,1.970
15,B15,4.024

# Assay: Probe fluorescence ratio response to linoleic acid relative to ADIFAB2
# Format: binding
# Settings: response relative to ADIFAB2
# Outline: as §1
row,Molecule,DR/DR LA
1,B1,1.002
2,B2,0.976
3,B3,0.682
4,B4,0.860
5,B5,2.713
6,B6,0.707
7,B7,1.107
8,B8,0.534
9,B9,0.472
10,B10,0.855
11,B11,0.657
12,B12,0.985
13,B13,0.557
14,B14,2.116
15,B15,4.381

# Assay: Probe fluorescence ratio response to palmitoleic acid relative to ADIFAB2
# Format: binding
# Settings: response relative to ADIFAB2
# Outline: as §1
row,Molecule,DR/DR POA
1,B1,0.668
2,B2,2.256
3,B3,0.781
4,B4,0.970
5,B5,3.110
6,B6,0.235
7,B7,1.072
8,B8,−0.003
9,B9,0.986
10,B10,0.770
11,B11,0.410
12,B12,0.341
13,B13,0.597
14,B14,2.996
15,B15,3.284

# Assay: Probe fluorescence ratio response to oleic acid relative to ADIFAB2
# Format: binding
# Settings: response relative to ADIFAB2
# Outline: as §1
row,Molecule,DR/DR OA
1,B1,1.668
2,B2,0.775
3,B3,0.549
4,B4,0.899
5,B5,2.676
6,B6,0.300
7,B7,1.096
8,B8,0.020
9,B9,0.140
10,B10,0.942
11,B11,0.355
12,B12,0.864
13,B13,0.307
14,B14,1.490
15,B15,4.703
